Consider one substance from US20260216362A1, “ANTI-BDCA2 ANTIBODY-DRUG CONJUGATE AND USE THEREOF” (DUALITY BIOLOGICS (SHANGHAI) CO., LTD., priority 2022, published 2026).

Test [1] addresses T1, recombinant Human BDCA2 (Homo sapiens, UniProt Q8WTT0).
T1 construct: extracellular domain (Asn45-Ile213) of human BDCA2 (hBDCA2); human IgG1 Fc (fused via a linker) (N); made in house; host or cells: 293E
T1 sequence (Q8WTT0 45-213): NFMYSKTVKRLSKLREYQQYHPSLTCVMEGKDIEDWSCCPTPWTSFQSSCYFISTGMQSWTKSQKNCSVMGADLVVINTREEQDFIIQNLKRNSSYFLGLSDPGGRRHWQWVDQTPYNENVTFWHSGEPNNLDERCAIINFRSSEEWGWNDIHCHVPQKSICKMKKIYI
Briefly: Affinity assay of humanized antibodies by BIAcore (SPR). Conditions: 1:1 binding model. The method, then: The humanized antibodies of the present disclosure were assayed for affinity by the BIAcore experiment. The surface of a CM5 chip channel was activated with 50 mM NHS and 200 mM EDC (NHS and EDC from an amino coupling kit) mixed in a ratio of 1:1, and the anti-human IgG (Fc) antibody (diluted with a sodium acetate solution at pH 5.0, the concentration was 25 μg/mL) was injected for 420 s. Then 1 M ethanolamine was injected at a flow rate of 10 μL/min for 420 s to block excess active carboxyl groups on the chip. The humanized antibody was diluted to 1 μg/mL using a running buffer and injected into a detection channel flow cell at a flow rate of 10 μL/min. The sample injection was performed for 60 s for capture. The recombinant Human BDCA2 was diluted to 50 nM or 100 nM with 1× HBS-EP+ (pH 7.4), and diluted in a gradient of 1:2 to 0.39 nM. The test samples hBDCA2 at these concentration gradients were separately injected into the detection channel at a flow rate of 30 μL/min, wherein 2 samples at the concentration of 0 were used for removing background signals. The times for the antibody-antigen binding and dissociation were 180 s and 400 s, respectively. […] After subtraction of the signals from the reference channel (flow cell 1) and 0 concentration, a 1:1 binding model was selected for curve fitting, and kinetic parameters calculated.
Background: In SPR one partner is held on a chip, and binding of the other changes the refractive index at the surface.

Test [2] concerns human peripheral blood mononuclear cells. Briefly: Inhibition of CpG-A-induced TNF-α production from human peripheral blood mononuclear cells by BDCA2-ADC. It is filed as cell-based. Conditions: 0.5 μM CpG-A, 24 h. On the procedure: The inhibitory effects of the antibody-drug conjugate molecules of the present application on the production from peripheral blood mononuclear cells were detected. Peripheral blood mononuclear cells produce a large number of cytokines after the stimulation of the TLR9 agonist CpG-A. The peripheral blood mononuclear cells were treated in vitro with the BDCA2 antibody-drug conjugate at different concentrations, and IFNα and TNFα produced by the peripheral blood mononuclear cells were quantitatively detected after the stimulation of 0.5 μM CpG-A for a certain period of time. The in vitro activity of the ligand-drug conjugates was evaluated based on the extent of cytokine inhibition.
The cryopreserved human peripheral blood mononuclear cells were thawed, resuspended in a complete culture medium and counted, and the cell suspension was adjusted to 2.5×10^6 cells/mL with the culture medium and cultured overnight. […] The supernatant was collected, and the TNF-α and IFN-α concentration levels in the supernatant were detected using an ELISA kit. Dose-response data were fitted to an S-shaped curve using non-linear regression, and IC50 values were calculated.
TNF-α concentration assay was performed using a Dakewe TNF-α ELISA kit (Cat. No. 1117202). […] The reading at wavelength 450 nm was detected using an M2e instrument within 10 min after the termination. […]

For “BIIB059: reference antibody specifically binding to BDCA2, sequence derived from U.S. Pat. No. 9,902,775B2; SEQ ID NO: 25 and 26 [reference compound]”, in test [1], the ka is 167000 M⁻¹ s⁻¹ and the kd is 0.000179 s⁻¹. Moreover, the “inhibitory effect on TNF-α secretion” value in test [2] was “did not have an inhibitory effect”.
